# T1: human FAPα (Fibroblast activation protein alpha), cell surface expressed (human, UniProt Q12884 1-760)
# T1 construct: Endogenous on human lung fibroblasts and CAFs
# T1 sequence: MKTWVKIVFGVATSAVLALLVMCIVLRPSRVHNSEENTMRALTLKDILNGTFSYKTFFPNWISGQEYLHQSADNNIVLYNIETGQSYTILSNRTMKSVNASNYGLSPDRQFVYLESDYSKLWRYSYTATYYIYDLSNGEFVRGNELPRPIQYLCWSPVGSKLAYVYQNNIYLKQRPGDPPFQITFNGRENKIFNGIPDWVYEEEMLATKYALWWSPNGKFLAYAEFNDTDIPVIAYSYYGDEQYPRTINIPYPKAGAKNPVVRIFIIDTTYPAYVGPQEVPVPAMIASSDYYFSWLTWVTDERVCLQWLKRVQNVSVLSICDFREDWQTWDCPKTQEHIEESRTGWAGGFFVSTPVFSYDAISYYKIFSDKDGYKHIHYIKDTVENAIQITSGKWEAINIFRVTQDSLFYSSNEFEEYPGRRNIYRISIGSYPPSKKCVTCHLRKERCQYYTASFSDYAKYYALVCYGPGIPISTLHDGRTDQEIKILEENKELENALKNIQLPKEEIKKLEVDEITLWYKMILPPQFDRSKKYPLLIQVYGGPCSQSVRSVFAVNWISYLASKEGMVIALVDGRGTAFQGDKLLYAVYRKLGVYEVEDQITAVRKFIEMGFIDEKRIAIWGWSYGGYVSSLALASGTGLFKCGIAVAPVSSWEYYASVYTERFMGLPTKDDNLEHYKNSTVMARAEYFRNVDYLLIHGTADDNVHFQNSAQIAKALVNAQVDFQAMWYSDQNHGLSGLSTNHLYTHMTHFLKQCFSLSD
# B1: IgG1-DR4-FERR (antibody, V domains shown)
# VH: QVQLQESGPGLVKPSGTLSLTCAVSGGSISSYSWWSWIRQPPGKGLEWIGELYHSGSTNYNPSLKSRVTISVDKSKNQFSLKLRSVTAADTAVYYCVRGVATIDYWGQGTLVTVSS
# VL: QSALTQPPSASGSPGQSVTISCTGTSSDVGGYNFVSWYQQDPGKAPKLLIYEVTKRPSGVPDRFSGSKSGNTASLTVSGLQAEDEADYYCSSYAGSNNVMFGGGTKLTVLG
# notes: Bivalent monoclonal IgG1 lambda
# B2: BisG1-FAPα-FERL/DR4-FERR (bispecific antibody, human IgG1, kappa, lambda)
# heavy 1: EVQLLESGGGLVQPGGSPRLSCEASGFTFSSYALSWVRQAPGKGLEWVSAISGSGGGRYYADSVKGRFTISRDNSKNTLFLQMNSLRAEDTAVYYCAKEGYSSSGTYWDHWGQGTLVTVSSASTKGPSVFPLAPSSKSTSGGTAALGCLVKDYFPEPVTVSWNSGALTSGVHTFPAVLQSSGLYSLSSVVTVPSSSLGTQTYICNVNHKPSNTKVDKRVEPKSCDKTHTCPPCPAPEFERGPSVFLFPPKPKDTLMISRTPEVTCVVVDVSHEDPEVKFNWYVDGVEVHNAKTKPREEQYNSTYRVVSVLTVLHQDWLNGKEYKCKVSNKALPAPIEKTISKAKGQPREPQVYTLPPSREEMTKNQVSLTCLVKGFYPSDIAVEWESNGQPENNYKTTPPVLDSDGSFLLYSKLTVDKSRWQQGNVFSCSVMHEALHNHYTQKSLSLSPG
# light 1: AIQMTQSPSSVSASVGDRVTITCRASQGVSSWLAWYQQKPGRAPKLLIYVASTLQSGVPSRFSGSGSGTDFTLTINSLQPEDFATYYCQQANSFPPTFGQGTRLEMKRTVAAPSVFIFPPSDEQLKSGTASVVCLLNNFYPREAKVQWKVDNALQSGNSQESVTEQDSKDSTYSLSSTLTLSKADYEKHKVYACEVTHQGLSSPVTKSFNRGEC
# heavy 2: QVQLQESGPGLVKPSGTLSLTCAVSGGSISSYSWWSWIRQPPGKGLEWIGELYHSGSTNYNPSLKSRVTISVDKSKNQFSLKLRSVTAADTAVYYCVRGVATIDYWGQGTLVTVSSASTKGPSVFPLAPSSKSTSGGTAALGCLVKDYFPEPVTVSWNSGALTSGVHTFPAVLQSSGLYSLSSVVTVPSSSLGTQTYICNVNHKPSNTKVDKRVEPKSCDKTHTCPPCPAPEFERGPSVFLFPPKPKDTLMISRTPEVTCVVVDVSHEDPEVKFNWYVDGVEVHNAKTKPREEQYNSTYRVVSVLTVLHQDWLNGKEYKCKVSNKALPAPIEKTISKAKGQPREPQVYTLPPSREEMTKNQVSLTCLVKGFYPSDIAVEWESNGQPENNYKTTPPVLDSDGSFFLYSRLTVDKSRWQQGNVFSCSVMHEALHNHYTQKSLSLSPG
# light 2: QSALTQPPSASGSPGQSVTISCTGTSSDVGGYNFVSWYQQDPGKAPKLLIYEVTKRPSGVPDRFSGSKSGNTASLTVSGLQAEDEADYYCSSYAGSNNVMFGGGTKLTVLGQPKAAPSVTLFPPSSEELQANKATLVCLISDFYPGAVTVAWKADSSPVKAGVETTTPSKQSNNKYAASSYLSLTPEQWKSHRSYSCQVTHEGSTVEKTVAPTECS
# notes: Human IgG1 bispecific made by controlled Fab-arm exchange of IgG1-FAPα-FERL and IgG1-DR4-FERR; monovalent for FAPα and for DR4; also called GEN1057
# B3: BisG1-FAPα-FERL/b12-FERR (bispecific antibody, human IgG1, kappa)
# heavy 1: B2 heavy 1
# light 1: B2 light 1
# heavy 2: QVQLVQSGAEVKKPGASVKVSCQASGYRFSNFVIHWVRQAPGQRFEWMGWINPYNGNKEFSAKFQDRVTFTADTSANTAYMELRSLRSADTAVYYCARVGPYSWDDSPQDNYYMDVWGKGTTVIVSSASTKGPSVFPLAPSSKSTSGGTAALGCLVKDYFPEPVTVSWNSGALTSGVHTFPAVLQSSGLYSLSSVVTVPSSSLGTQTYICNVNHKPSNTKVDKRVEPKSCDKTHTCPPCPAPEFERGPSVFLFPPKPKDTLMISRTPEVTCVVVDVSHEDPEVKFNWYVDGVEVHNAKTKPREEQYNSTYRVVSVLTVLHQDWLNGKEYKCKVSNKALPAPIEKTISKAKGQPREPQVYTLPPSREEMTKNQVSLTCLVKGFYPSDIAVEWESNGQPENNYKTTPPVLDSDGSFFLYSRLTVDKSRWQQGNVFSCSVMHEALHNHYTQKSLSLSPG
# light 2: EIVLTQSPGTLSLSPGERATFSCRSSHSIRSRRVAWYQHKPGQAPRLVIHGVSNRASGISDRFSGSGSGTDFTLTITRVEPEDFALYYCQVYGASSYTFGQGTKLERKRTVAAPSVFIFPPSDEQLKSGTASVVCLLNNFYPREAKVQWKVDNALQSGNSQESVTEQDSKDSTYSLSSTLTLSKADYEKHKVYACEVTHQGLSSPVTKSFNRGEC
# What was measured:
# [1] = biological target: human DR4 with death domain deletion on ExpiCHO-S cells (human); test: flow cytometry, ExpiCHO-S cells expressing human DR4, n = 3
# Sequence of human DR4 with death domain deletion on ExpiCHO-S cells (human) (chain, as listed by the source limits assumed, stated change not applied): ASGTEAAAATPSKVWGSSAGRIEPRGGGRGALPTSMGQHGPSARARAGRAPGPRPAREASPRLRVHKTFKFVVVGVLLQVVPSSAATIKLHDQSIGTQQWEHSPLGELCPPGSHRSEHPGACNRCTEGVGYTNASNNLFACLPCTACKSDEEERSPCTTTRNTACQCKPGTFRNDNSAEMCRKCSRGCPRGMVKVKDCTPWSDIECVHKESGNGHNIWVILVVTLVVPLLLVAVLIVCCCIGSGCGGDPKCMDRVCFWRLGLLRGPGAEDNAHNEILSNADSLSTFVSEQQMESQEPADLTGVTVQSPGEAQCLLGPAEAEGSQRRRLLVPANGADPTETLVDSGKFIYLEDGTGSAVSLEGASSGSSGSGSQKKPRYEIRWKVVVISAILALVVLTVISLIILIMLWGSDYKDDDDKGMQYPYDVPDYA
# Description: Binding of BisG1-FAPα-FERL/DR4-FERR, BisG1-DR4-FEAL/b12-FEAR and IgG1-DR4-FERR to DR4 of various species commonly used for nonclinical toxicology studies was assessed by flow cytometry using ExpiCHO-S cells transiently expressing DR4 from different animal species. In contrast to other species, rodents only express one DR which has highest homology with human DR5. Therefore, ExpiCHO-S cells transiently expressing rat and mouse DR protein were used instead. All DR constructs lack the intracellular DD to avoid apoptosis of transfected cells upon DR(4) activation. IgG1-b12 was used as negative control.
# [2] = biological target: T1, human FAPα (Fibroblast activation …); test: flow cytometry, CAFs, n = 1
# Description: Binding of bispecific or monoclonal antibodies carrying the anti-FAPα arm derived from IgG1-FAPα-FERL (BisG1-FAPα-FERL/DR4-FERR, BisG1-FAPα-FERL/b12-FERR, and IgG1-FAPα-FERL) to cell surface expressed human FAPα was analyzed by flow cytometry using human lung fibroblasts and CAFs, which endogenously express FAPα. BisG1-b12-FERL/b12-FERR was used as negative control.
# Human lung fibroblasts and CAFs (50,000 cells/well) were seeded in 96-Well round bottom plates (Greiner Bio-one, Cat #650101). Antibody dilutions were prepared using fluorescence-activated cell sorting (FACS) buffer, consisting of phosphate buffer saline (PBS, Lonza, Cat #BE17-517Q)+1% Bovine Serum Albumin (BSA, Roche, Cat #10735086001)+0.02% Sodium Azide (Bio-World, Cat #41920044-3). Plates were centrifuged, supernatant was removed, cells were resuspended in 50 μL of human Fc Block (BD, Cat #564220, diluted 1:100 in FACS buffer) and 50 μL of viability stain TO-PRO-3 Iodide (Thermo Fisher, Cat #T3605, diluted 1: 25,000 in FACS buffer), and incubated for 15 min at 4° C. Plates were washed three times with FACS buffer. […] Antibody binding to viable cells (TO-PRO-3 negative) was analyzed by flow cytometry on a FACSCelesta™ (BD biosciences) and data were processed using FlowJo_v10.8.1 (FlowJo LLC). Geomean fluorescence intensity, gMFI, was determined and visualized using GraphPad Prism.
Binder,EC50 [1],EC50 [2]
B1,0.04 µg/mL,–
B2,0.11 µg/mL,0.159 µg/mL
B3,–,0.183 µg/mL
